The text below walks through data of the array DNA melting data of Ke et al..

A short description of this series: melting temperature; melt of duplexes. To be noted: sodium 0.0675 M; strand 1 µM.
Consider “CGACGTGCGCGATGTGCTG+CAGCACATCTTGCACGTCG ((((((((..(((((((((+)))))))))..))))))))”, for which the midpoint of thermal melting (Tm) – broadly, the temperature at the midpoint of the melting transition – worked out at 53.9 °C.
For “CGACGTGCAATATGTGCTG+CAGCACATTATGCACGTCG (((((((((..((((((((+))))))))..)))))))))” the value was 52.1 °C.
For “CGACGTGCAGGATGTGCTG+CAGCACATGTGGCACGTCG ((((((((...((((((((+))))))))...))))))))” the value was 50.9 °C; for “CGACGTGCCTTATGTGCTG+CAGCACATGTCGCACGTCG ((((((((...((((((((+))))))))...))))))))”, 47.8 °C.
For the substance “CGACGTGCCGAATGTGCTG+CAGCACATTCGGCACGTCG (((((((((((((((((((+)))))))))))))))))))”, the Tm was determined as 66.5 °C.
For “CGACGTGCCTAATGTGCTG+CAGCACATTTGGCACGTCG (((((((((.(((((((((+))))))))).)))))))))”, the melting temperature (Tm) turned out to be 58.7 °C.
“CGACGTGCATCATGTGCTG+CAGCACATCTCGCACGTCG ((((((((...((((((((+))))))))...))))))))”: the Tm stood at 46.5 °C.
Turning to “CGACGTGCCTTATGTGCTG+CAGCACATGACGCACGTCG ((((((((.(.((((((((+)))))))).).))))))))”, the Tm was found to be 45.4 °C.
Regarding “CGACGTGCTGTATGTGCTG+CAGCACATTCCGCACGTCG ((((((((.(.((((((((+)))))))).).))))))))”, the melting temperature (Tm) was determined as 50.1 °C.
The result for “CGACGTGCTCTATGTGCTG+CAGCACATATTGCACGTCG ((((((((..(((((((((+)))))))))..))))))))” reads 50.9 °C; that for “CGACGTGCAGGATGTGCTG+CAGCACATACAGCACGTCG ((((((((.(.((((((((+)))))))).).))))))))”, 55 °C.
For the substance “CGACGTGCACTATGTGCTG+CAGCACATAACGCACGTCG ((((((((..(((((((((+)))))))))..))))))))”, the Tm is 46.2 °C.
Take “CGACGTGCCCAATGTGCTG+CAGCACATGGGGCACGTCG ((((((((((.((((((((+)))))))).))))))))))”: the Tm was 61.3 °C.
The result for “CGACGTGCTATATGTGCTG+CAGCACATTTAGCACGTCG ((((((((((.((((((((+)))))))).))))))))))” reads 55.3 °C.
For “CGACGTGCCACATGTGCTG+CAGCACATAGTGCACGTCG ((((((((...((((((((+))))))))...))))))))” the value was 46.9 °C; for “CGACGTGCATCATGTGCTG+CAGCACATATCGCACGTCG ((((((((...((((((((+))))))))...))))))))”, 47.4 °C.
On to “CGACGTGCTATATGTGCTG+CAGCACATAAGGCACGTCG ((((((((..(((((((((+)))))))))..))))))))”, for which the melting temperature (Tm) was 52.5 °C.
The result for “CGACGTGCCTGATGTGCTG+CAGCACATATCGCACGTCG ((((((((...((((((((+))))))))...))))))))” reads 47.7 °C.
For the substance “CGACGTGCGTAATGTGCTG+CAGCACATAGAGCACGTCG ((((((((...((((((((+))))))))...))))))))”, the Tm stood at 54.4 °C.
Turning to “CGACGTGCCATATGTGCTG+CAGCACATAAGGCACGTCG (((((((((.(((((((((+))))))))).)))))))))”, the Tm was determined as 56.9 °C.
For “CGACGTGCAAAATGTGCTG+CAGCACATAGTGCACGTCG (((((((((..((((((((+))))))))..)))))))))” the value was 47 °C; for “CGACGTGCGAAATGTGCTG+CAGCACATTTCGCACGTCG (((((((((((((((((((+)))))))))))))))))))”, 64.7 °C.
The result for “CGACGTGCTCGATGTGCTG+CAGCACATATGGCACGTCG ((((((((...((((((((+))))))))...))))))))” reads 50.5 °C; that for “CGACGTGCTTGATGTGCTG+CAGCACATGCCGCACGTCG ((((((((...((((((((+))))))))...))))))))”, 47.8 °C; that for “CGACGTGCAATATGTGCTG+CAGCACATTGTGCACGTCG (((((((((..((((((((+))))))))..)))))))))”, 49.1 °C.
Turning to “CGACGTGCGTCATGTGCTG+CAGCACATGAAGCACGTCG ((((((((.((((((((((+)))))))))).))))))))”, the midpoint of thermal melting (Tm) turned out to be 59.4 °C.
For “CGACGTGCCATATGTGCTG+CAGCACATGCTGCACGTCG ((((((((...((((((((+))))))))...))))))))” the value was 46.7 °C; for “CGACGTGCCCGATGTGCTG+CAGCACATTTCGCACGTCG ((((((((...((((((((+))))))))...))))))))”, 47.6 °C; for “CGACGTGCATAATGTGCTG+CAGCACATTACGCACGTCG ((((((((.((((((((((+)))))))))).))))))))”, 54.4 °C.
The result for “CGACGTGCTACATGTGCTG+CAGCACATCGTGCACGTCG ((((((((...((((((((+))))))))...))))))))” reads 46.6 °C.
For “CGACGTGCTAGATGTGCTG+CAGCACATGCGGCACGTCG ((((((((...((((((((+))))))))...))))))))” the value was 50.3 °C; for “CGACGTGCCGTATGTGCTG+CAGCACATTATGCACGTCG ((((((((...((((((((+))))))))...))))))))”, 48.6 °C; for “CGACGTGCTTAATGTGCTG+CAGCACATGGTGCACGTCG ((((((((...((((((((+))))))))...))))))))”, 50.3 °C.
In the case of “CGACGTGCGGAATGTGCTG+CAGCACATTCGGCACGTCG ((((((((.((((((((((+)))))))))).))))))))”, the melting temperature (Tm) was 59.9 °C.
For “CGACGTGCACCATGTGCTG+CAGCACATAAAGCACGTCG ((((((((...((((((((+))))))))...))))))))” the value was 45 °C; for “CGACGTGCAAAATGTGCTG+CAGCACATCCGGCACGTCG ((((((((...((((((((+))))))))...))))))))”, 49.1 °C; for “CGACGTGCAGGATGTGCTG+CAGCACATTCGGCACGTCG ((((((((.(.((((((((+)))))))).).))))))))”, 56.2 °C.
With “CGACGTGCAGCATGTGCTG+CAGCACATCATGCACGTCG (((((((((..((((((((+))))))))..)))))))))”, the Tm was found to be 49.5 °C.
For “CGACGTGCTTCATGTGCTG+CAGCACATGACGCACGTCG ((((((((.((((((((((+)))))))))).))))))))” the value was 55.1 °C; for “CGACGTGCCTCATGTGCTG+CAGCACATTACGCACGTCG ((((((((.(.((((((((+)))))))).).))))))))”, 46.4 °C.
For “CGACGTGCGAAATGTGCTG+CAGCACATCATGCACGTCG ((((((((...((((((((+))))))))...))))))))” the value was 49.9 °C.
The result for “CGACGTGCGAAATGTGCTG+CAGCACATCTGGCACGTCG ((((((((.(.((((((((+)))))))).).))))))))” reads 50.6 °C; that for “CGACGTGCGGTATGTGCTG+CAGCACATTGCGCACGTCG (((((((((..((((((((+))))))))..)))))))))”, 55.4 °C; that for “CGACGTGCACAATGTGCTG+CAGCACATCAAGCACGTCG ((((((((...((((((((+))))))))...))))))))”, 46.2 °C.
As for “CGACGTGCTTAATGTGCTG+CAGCACATATGGCACGTCG ((((((((...((((((((+))))))))...))))))))”, the Tm is 51.4 °C.
The result for “CGACGTGCTACATGTGCTG+CAGCACATCCCGCACGTCG ((((((((...((((((((+))))))))...))))))))” reads 47.4 °C.
For “CGACGTGCCATATGTGCTG+CAGCACATTCTGCACGTCG ((((((((...((((((((+))))))))...))))))))” the value was 48.8 °C; for “CGACGTGCTTCATGTGCTG+CAGCACATATTGCACGTCG ((((((((...((((((((+))))))))...))))))))”, 49.1 °C; for “CGACGTGCTGTATGTGCTG+CAGCACATCACGCACGTCG ((((((((...((((((((+))))))))...))))))))”, 50.7 °C.
As for “CGACGTGCGAAATGTGCTG+CAGCACATTATGCACGTCG ((((((((..(((((((((+)))))))))..))))))))”, the midpoint of thermal melting (Tm) stood at 53.6 °C.
The result for “CGACGTGCCCGATGTGCTG+CAGCACATATCGCACGTCG ((((((((...((((((((+))))))))...))))))))” reads 47.2 °C.
In the case of “CGACGTGCCTCATGTGCTG+CAGCACATGTTGCACGTCG ((((((((..(((((((((+)))))))))..))))))))”, the Tm came to 52.3 °C.
The result for “CGACGTGCTATATGTGCTG+CAGCACATTCAGCACGTCG (((((((((..((((((((+))))))))..)))))))))” reads 51 °C; that for “CGACGTGCGCCATGTGCTG+CAGCACATTCAGCACGTCG ((((((((...((((((((+))))))))...))))))))”, 49.8 °C; that for “CGACGTGCCATATGTGCTG+CAGCACATTTTGCACGTCG ((((((((.(.((((((((+)))))))).).))))))))”, 49.6 °C.
The result for “CGACGTGCTCTATGTGCTG+CAGCACATTTGGCACGTCG ((((((((...((((((((+))))))))...))))))))” reads 50.1 °C; that for “CGACGTGCGATATGTGCTG+CAGCACATGATGCACGTCG ((((((((...((((((((+))))))))...))))))))”, 53.8 °C; that for “CGACGTGCTACATGTGCTG+CAGCACATGCTGCACGTCG ((((((((..(((((((((+)))))))))..))))))))”, 52.8 °C.
On to “CGACGTGCACCATGTGCTG+CAGCACATGTAGCACGTCG ((((((((..(((((((((+)))))))))..))))))))”, for which the midpoint of thermal melting (Tm) stood at 50.9 °C.
The result for “CGACGTGCGCAATGTGCTG+CAGCACATGCCGCACGTCG (((((((((..((((((((+))))))))..)))))))))” reads 56.6 °C.
“CGACGTGCCCGATGTGCTG+CAGCACATATGGCACGTCG (((((((((..((((((((+))))))))..)))))))))”: the midpoint of thermal melting (Tm) was 54 °C.
The result for “CGACGTGCTTAATGTGCTG+CAGCACATTGAGCACGTCG (((((((((.(((((((((+))))))))).)))))))))” reads 56.9 °C.
For “CGACGTGCTTTATGTGCTG+CAGCACATGCTGCACGTCG ((((((((...((((((((+))))))))...))))))))” the value was 46.2 °C; for “CGACGTGCGAGATGTGCTG+CAGCACATCCTGCACGTCG ((((((((..(((((((((+)))))))))..))))))))”, 55.6 °C; for “CGACGTGCGGGATGTGCTG+CAGCACATGCTGCACGTCG ((((((((.(.((((((((+)))))))).).))))))))”, 56.9 °C.
For “CGACGTGCAATATGTGCTG+CAGCACATCATGCACGTCG (((((((((..((((((((+))))))))..)))))))))” the value was 50.3 °C.
